Experiments:
in vivo = conditions: male, NOD-scid IL2Rg^null (NSG), mouse, iv, total radioactivity
Procedure: All imaging and biodistribution studies were performed using male NOD-scid IL2Rg^null (NSG) mice and conducted according to the guidelines established by the Canadian Council on Animal Care and approved by Animal Ethics Committee of the University of British Columbia. For tumor inoculations, mice were anesthetized by inhalation with 2% isoflurane in oxygen and implanted subcutaneously with 5 × 10^6 LNCaP cells below the left shoulder. Imaging and biodistribution studies were performed only after tumors grew to 5−8 mm in diameter over a period of 5−7 weeks.
For ex vivo biodistribution studies, mice were injected with ~1.5−3 MBq of the ^68Ga-labeled tracer. At 1 h p.i., mice were euthanized, blood was drawn from heart, and organs/tissues of interest were collected, rinsed with PBS, blotted dry, weighed, and counted using an automated gamma counter. The uptake in each organ/tissue was normalized to the injected dose and expressed as the percentage of the injected dose per gram of tissue (%ID/g).
Statistical analyses were performed by Student’s t-test using the Microsoft (Redmond, WA, USA) Excel software. The unpaired, two-tailed test was used to compare tissue uptake and tumor-to-background (muscle, blood and kidney) contrast ratios of [^68Ga]Ga-DOTA-AmBz-MVK(HTK01166)-OH and [^68Ga]Ga-DOTA-AmBz-M(O)VK(HTK01166)-OH. The unpaired, one-tailed test was used to compare kidney uptake of [^68Ga]Ga-DOTA-AmBz-MVK(HTK01166)-OH (or [^68Ga]Ga-DOTA-AmBz-M(O)VK(HTK01166)-OH) with that of the previously reported [^68Ga]Ga-HTK01166 [15]. The difference was considered statistically significant when the p value was <0.05.

mice = conditions: mouse, in vivo
Procedure: Radio-metabolites of [^68Ga]Ga-DOTA-AmBz-MVK(Ac)-OH and [^68Ga]Ga-DOTA-AmBz-MVK(HTK01166)-OH in mouse blood and urine samples were analyzed by HPLC. The blood samples were collected at 5 min p.i. due to the fast excretion nature of the small radio-metabolites, whereas the urine samples were collected at 15 min p.i. to allow sufficient time for the accumulation of enough radio-metabolites for analysis.
Male NSG mice were injected with 3–17 MBq of the ^68Ga-labeled peptide. For blood profiling, mice were anesthetized with 2% isoflurane in O2 and euthanized by CO2 inhalation at 5 min p.i. Blood draw was then performed by cardiac puncture and blood was collected in an eppendorf tube with equal volume of CH3CN. Each tube was then centrifuged at RT for 10–15 min and the resulting supernatant was collected and analyzed using the analytical HPLC column to identify and quantify radio-metabolite(s) in blood. For the purpose of urine profiling, urine was collected after euthanizing the mice at 15 min p.i. The urine samples were also collected and analyzed using the analytical HPLC column to identify and quantify radio-metabolite(s) in urine.

[1] = brush border membrane vesicles (BBMVs) extracted from mouse kidneys; conditions: 37 °C, up to 1 h
[2] = brush border membrane vesicles (BBMVs) extracted from mouse kidneys, control well with phosphoramidon; conditions: 37 °C, up to 1 h
[3] = mouse blood samples collected at 5 min p.i.; conditions: Male NSG mice, up to 5 min p.i.
[4] = mouse urine samples collected at 15 min p.i.; conditions: Male NSG mice, up to 15 min p.i.
[5] = brush border membrane vesicles (BBMVs) extracted from mouse kidneys, with phosphoramidon; conditions: 37 °C, up to 1 h

| Compound | tissue uptake at 1 h (in vivo; Adrenal Glands uptake) [%ID/g] | tissue uptake at 1 h (in vivo; Bone uptake) [%ID/g] | tissue uptake at 1 h (in vivo; Brain uptake) [%ID/g] | tissue uptake at 1 h (in vivo; Fat uptake) [%ID/g] | tissue uptake at 1 h (in vivo; Heart uptake) [%ID/g] | tissue uptake at 1 h (in vivo; Intestines uptake) [%ID/g] | tissue uptake at 1 h (in vivo; Kidneys uptake) [%ID/g] | tissue uptake at 1 h (in vivo; LNCaP Tumor uptake) [%ID/g] | tissue uptake at 1 h (in vivo; Liver uptake) [%ID/g] | tissue uptake at 1 h (in vivo; Lungs uptake) [%ID/g] | tissue uptake at 1 h (in vivo; Muscle uptake) [%ID/g] | tissue uptake at 1 h (in vivo; Pancreas uptake) [%ID/g] | tissue uptake at 1 h (in vivo; Spleen uptake) [%ID/g] | tissue uptake at 1 h (in vivo; Stomach uptake) [%ID/g] | tissue uptake at 1 h (in vivo; Tail uptake) [%ID/g] | tissue uptake at 1 h (in vivo; Testes uptake) [%ID/g] | tissue to tissue ratio at 1 h (in vivo; Tumor/Blood uptake ratio) | tissue to tissue ratio at 1 h (in vivo; Tumor/Kidney uptake ratio) | tissue to tissue ratio at 1 h (in vivo; Tumor/Muscle uptake ratio) | cleaved bond [1] | also measured |
| --- | --- | --- | --- | --- | --- | --- | --- | --- | --- | --- | --- | --- | --- | --- | --- | --- | --- | --- | --- | --- | --- |
| CC(C)[C@H](NC(=O)[C@H](CC[S+](C)[O-])NC(=O)c1ccc(CNC(=O)CN2CCN(CC(=O)O)CCN(CC(=O)O)CCN(CC(=O)O)CC2)cc1)C(=O)N[C@@H](CCCCNC(=O)CCc1cn(CC(=O)NC[C@H]2CC[C@H](C(=O)N[C@H](C(=O)NCCCC[C@H](NC(=O)N[C@@H](CCC(=O)O)C(=O)O)C(=O)O)C3Cc4ccccc4C3)CC2)nn1)C(=O)O (stereo partly shown) [[^68Ga]Ga-DOTA-AmBz-M(O)VK(HTK01166)-OH, metal not drawn] | 4.33 ± 2.07 | 0.11 ± 0.05 | 0.03 ± 0.01 | 0.52 ± 0.13 | 0.23 ± 0.05 | 0.29 ± 0.1 | 89.7 ± 19.3 | 4.06 ± 1.27 | 0.32 ± 0.06 | 0.88 ± 0.1 | 0.22 ± 0.05 | 0.56 ± 0.24 | 11.5 ± 2.7 | 0.13 ± 0.05 | 1.86 ± 2.44 | 0.31 ± 0.07 | 6.83 ± 2.81 | 0.04 ± 0.02 | 17.9 ± 7.57 | – | – |
| CSCC[C@H](NC(=O)c1ccc(CNC(=O)CN2CCN(CC(=O)O)CCN(CC(=O)O)CCN(CC(=O)O)CC2)cc1)C(=O)N[C@H](C(=O)N[C@@H](CCCCNC(=O)CCc1cn(CC(=O)NC[C@H]2CC[C@H](C(=O)N[C@H](C(=O)NCCCC[C@H](NC(=O)N[C@@H](CCC(=O)O)C(=O)O)C(=O)O)C3Cc4ccccc4C3)CC2)nn1)C(=O)O)C(C)C [[^68Ga]Ga-DOTA-AmBz-MVK(HTK01166)-OH, metal not drawn] | 5.59 ± 4.02 | 0.16 ± 0.04 | 0.02 | 0.72 ± 0.33 | 0.25 ± 0.12 | 0.4 ± 0.1 | 104 ± 12.2 | 3.98 ± 0.87 | 0.58 ± 0.08 | 0.96 ± 0.12 | 0.21 ± 0.05 | 0.6 ± 0.22 | 8.87 ± 2.63 | 0.11 ± 0.02 | 1.03 ± 0.82 | 0.36 ± 0.06 | 7.24 ± 1.16 | 0.04 ± 0.01 | 19.9 ± 5.41 | – | unidentified radio-metabolite in urine (mice): no presence |
| [^68Ga]Ga-DOTA-AmBz-M(O)VK(HTK01166)-OH | – | – | – | – | – | – | – | – | – | – | – | – | – | – | – | – | – | – | – | – | not cleaved [1]: 94% remaining intact after 1 h; not cleaved [2]: 99.5% remaining intact after 1 h |
| [^68Ga]Ga-DOTA-AmBz-MVK(Ac)-OH | – | – | – | – | – | – | – | – | – | – | – | – | – | – | – | – | – | – | – | Met-Val, major, 1 h | cleaved bond [2]: Met-Val, 1 h; cleaved bond [3]: Met-Val, minor, 5 min p.i.; cleaved bond [4]: Met-Val, major, 15 min p.i. |
| [^68Ga]Ga-DOTA-AmBz-MVK(HTK01166)-OH | – | – | – | – | – | – | – | – | – | – | – | – | – | – | – | – | – | – | – | Met-Val, 1 h | not cleaved [5]: ~95% intact after 1 h; cleaved bond [3]: Met-Val, 5 min p.i.; cleaved bond [4]: Met-Val, 15 min p.i. |

— article PMC7503470 (Molecules, 2020)
